{"source": "patent US20080227848", "proteins": {"B1": {"name": "factor inhibiting hypoxia-inducible factor (FIH), highly purified recombinant (protein)", "chain": "MAATAAEAVASGSGEPREEAGALGPAWDESQLRSYSFPTRPIPRLSQSDPRAEELIENEEPVVLTDTNLVYPALKWDLEYLQENIGNGDFSVYSASTHKFLYYDEKKMANFQNFKPRSNREEMKFHEFVEKLQDIQQRGGEERLYLQQTLNDTVGRKIVMDFLGFNWNWINKQQGKRGWGQLTSNLLLIGMEGNVTPAHYDEQQNFFAQIKGYKRCILFPPDQFECLYPYPVHHPCDRQSQVDFDNPDYERFPNFQNVVGYETVVGPGDVLYIPMYWWHHIESLLNGGITITVNFWYKGAPTPKRIEYPLKAHQKVAIMRNIEKMLGEALGNPQEVGPLLNTMIKGRYN"}}, "key": {"[1]": {"target": "T1, GST HIF-1α 786-826, Q16665", "T1 chain": "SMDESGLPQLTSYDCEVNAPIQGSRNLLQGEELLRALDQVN", "settings": "scale: % activity relative to GST HIF-1α 786-826"}, "[2]": {"target": "GST p105 ARD N to A mutant", "settings": "scale: % activity relative to GST HIF-1α 786-826"}, "p19-INK-4d peptide": {"target": "T2, p19-INK-4d peptide", "T2 chain": "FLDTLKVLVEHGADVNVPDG"}, "FGIF peptide": {"target": "T3, FGIF peptide", "T3 chain": "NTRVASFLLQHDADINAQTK"}, "[3]": {"target": "T4, CAD, HIF C-terminal transactivation domain standard peptide", "T4 chain": "DESGLPQLTSYDCEVNAPI"}, "GST p105 ARD": {"target": "T5, GST p105 ARD", "T5 chain": "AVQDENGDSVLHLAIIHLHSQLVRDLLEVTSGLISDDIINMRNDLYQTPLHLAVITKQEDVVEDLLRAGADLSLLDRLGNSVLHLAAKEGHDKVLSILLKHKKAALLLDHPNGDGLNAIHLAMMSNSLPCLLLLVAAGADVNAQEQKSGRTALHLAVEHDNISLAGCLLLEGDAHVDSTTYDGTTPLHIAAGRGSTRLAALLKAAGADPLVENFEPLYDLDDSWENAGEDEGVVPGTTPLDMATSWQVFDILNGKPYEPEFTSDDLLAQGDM", "settings": "scale: % activity relative to GST HIF-1α 786-826"}, "2-5A-d-R peptide": {"target": "T6, 2-5A-d-R peptide", "T6 chain": "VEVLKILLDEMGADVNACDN"}, "p105 21 mer peptide": {"target": "T7, p105 21 mer peptide", "T7 chain": "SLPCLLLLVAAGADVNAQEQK"}, "Gankyrin/p28-II peptide": {"target": "T8, Gankyrin/p28-II peptide", "T8 chain": "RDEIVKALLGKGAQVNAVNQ"}, "Tankyrase 1/2 peptide": {"target": "T9, Tankyrase 1/2 peptide", "T9 chain": "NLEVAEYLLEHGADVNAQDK"}, "Myotrophin peptide": {"target": "T10, Myotrophin peptide", "T10 chain": "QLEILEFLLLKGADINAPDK"}, "M110 peptide": {"target": "T11, M110 peptide", "T11 chain": "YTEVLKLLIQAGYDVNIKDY"}, "[4]": {"target": "T12, p105 ARD (ankyrin repeat domain of p105, amino acid residues 537-809), free form", "T12 chain": "T5 chain", "settings": "scale: % activity relative to GST HIF-1α 786-826"}, "GABPbeta peptide": {"target": "T13, GABPbeta peptide", "T13 chain": "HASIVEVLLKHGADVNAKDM"}, "FEM-1 21 mer peptide": {"target": "T14, FEM-1 21 mer peptide", "T14 chain": "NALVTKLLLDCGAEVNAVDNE"}, "[5]": {"target": "T15, IkappaB-alpha, recombinant protein, P25963", "T15 chain": "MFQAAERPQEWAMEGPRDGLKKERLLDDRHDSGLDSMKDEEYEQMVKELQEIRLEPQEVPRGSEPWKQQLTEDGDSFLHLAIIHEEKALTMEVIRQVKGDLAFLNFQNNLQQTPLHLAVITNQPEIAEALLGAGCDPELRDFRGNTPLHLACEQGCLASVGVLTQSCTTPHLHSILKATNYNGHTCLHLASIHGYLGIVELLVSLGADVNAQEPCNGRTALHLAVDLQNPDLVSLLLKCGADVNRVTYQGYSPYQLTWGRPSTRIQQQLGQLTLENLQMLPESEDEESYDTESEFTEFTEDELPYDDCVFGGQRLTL"}, "IkBa 21 mer peptide": {"target": "T16, IkBa 21 mer peptide", "T16 chain": "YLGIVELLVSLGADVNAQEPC"}, "[6]": {"settings": "scale: % activity relative to GST HIF-1α 786-826"}}}
{"protein": "B1", "values": [{"measurement": "% activity relative to GST HIF-1α 786-826 (decarboxylation of 2OG)", "setting": "[1]", "result": 100}, {"measurement": "% activity relative to GST HIF-1α 786-826 (decarboxylation of 2OG)", "setting": "[2]", "result": 12}, {"measurement": "Activity + FIH (relative to synthetic HIF1alphaCAD) (relative to synthetic HIF1alphaCAD)", "setting": "p19-INK-4d peptide", "result": 124}, {"measurement": "Hydroxylation of peptide observed by LC-MS analysis", "setting": "p19-INK-4d peptide", "result": "Yes"}, {"measurement": "Activity + FIH (relative to synthetic HIF1alphaCAD) (relative to synthetic HIF1alphaCAD)", "setting": "FGIF peptide", "result": 168}, {"measurement": "Hydroxylation of peptide observed by LC-MS analysis", "setting": "FGIF peptide", "result": "Yes"}, {"measurement": "Activity + FIH (relative to synthetic HIF1alphaCAD) (relative to synthetic HIF1alphaCAD)", "setting": "[3]", "result": 100}, {"measurement": "Hydroxylation of peptide observed by LC-MS analysis", "setting": "[3]", "result": "Yes"}, {"measurement": "% activity relative to GST HIF-1α 786-826 (decarboxylation of 2OG)", "setting": "[3]; [6]", "result": 75}, {"measurement": "% activity relative to GST HIF-1α 786-826 (decarboxylation of 2OG)", "setting": "GST p105 ARD", "result": 129}, {"measurement": "Activity + FIH (relative to synthetic HIF1alphaCAD) (relative to synthetic HIF1alphaCAD)", "setting": "2-5A-d-R peptide", "result": 27.8}, {"measurement": "Hydroxylation of peptide observed by LC-MS analysis", "setting": "2-5A-d-R peptide", "result": "Yes"}, {"measurement": "2D-NMR spectra of the peptide after incubation with FIH", "setting": "p105 21 mer peptide", "result": "consistent with asparaginyl hydroxylation"}, {"measurement": "% activity relative to GST HIF-1α 786-826 (decarboxylation of 2OG)", "setting": "p105 21 mer peptide; [6]", "result": 100}, {"measurement": "Activity + FIH (relative to synthetic HIF1alphaCAD) (relative to synthetic HIF1alphaCAD)", "setting": "Gankyrin/p28-II peptide", "result": 116}, {"measurement": "Hydroxylation of peptide observed by LC-MS analysis", "setting": "Gankyrin/p28-II peptide", "result": "Yes"}, {"measurement": "Activity + FIH (relative to synthetic HIF1alphaCAD) (relative to synthetic HIF1alphaCAD)", "setting": "Tankyrase 1/2 peptide", "result": 107}, {"measurement": "Hydroxylation of peptide observed by LC-MS analysis", "setting": "Tankyrase 1/2 peptide", "result": "Yes"}, {"measurement": "site of hydroxylation by LC-MS", "setting": "Tankyrase 1/2 peptide", "result": "LC-MS analyses located the site of hydroxylation to the internal asparagine residue in the case of tankyrase"}, {"measurement": "Activity + FIH (relative to synthetic HIF1alphaCAD) (relative to synthetic HIF1alphaCAD)", "setting": "Myotrophin peptide", "result": 154}, {"measurement": "Hydroxylation of peptide observed by LC-MS analysis", "setting": "Myotrophin peptide", "result": "Yes"}, {"measurement": "MALDI ToF mass spectrometry of the tryptic digest after incubation with FIH", "setting": "p105 ARD L668K mutant", "result": "following incubation with FIH, a peak at 1,542 Da appears in the spectrum that corresponds to the hydroxylated 1,526 Da peptide i.e. +16 Da"}, {"measurement": "Activity + FIH (relative to synthetic HIF1alphaCAD) (relative to synthetic HIF1alphaCAD)", "setting": "M110 peptide", "result": 122}, {"measurement": "Hydroxylation of peptide observed by LC-MS analysis", "setting": "M110 peptide", "result": "Yes"}, {"measurement": "% activity relative to GST HIF-1α 786-826 (decarboxylation of 2OG)", "setting": "[4]", "result": 164}, {"measurement": "Activity + FIH (relative to synthetic HIF1alphaCAD) (relative to synthetic HIF1alphaCAD)", "setting": "GABPbeta peptide", "result": 107}, {"measurement": "Hydroxylation of peptide observed by LC-MS analysis", "setting": "GABPbeta peptide", "result": "Yes"}, {"measurement": "2D-NMR spectra of the peptide after incubation with FIH", "setting": "FEM-1 21 mer peptide", "result": "consistent with asparaginyl hydroxylation"}, {"measurement": "direct peptide substrate hydroxylation by LC-MS", "setting": "FEM-1 21 mer peptide", "result": "both the FEM-1 and IkappaB-alpha peptides were observed to be hydroxylated under standard assay conditions"}, {"measurement": "% activity relative to GST HIF-1α 786-826 (decarboxylation of 2OG)", "setting": "FEM-1 21 mer peptide; [6]", "result": 89}, {"measurement": "MALDI-TOF mass spectrometry of tryptic fragments after incubation with FIH", "setting": "[5]", "result": "The results demonstrated hydroxylation of the fragment"}, {"measurement": "% activity relative to GST HIF-1α 786-826 (decarboxylation of 2OG)", "setting": "[5]; [6]", "result": 144}, {"measurement": "direct peptide substrate hydroxylation by LC-MS", "setting": "IkBa 21 mer peptide", "result": "both the FEM-1 and IkappaB-alpha peptides were observed to be hydroxylated under standard assay conditions"}, {"measurement": "% activity relative to GST HIF-1α 786-826 (decarboxylation of 2OG)", "setting": "IkBa 21 mer peptide; [6]", "result": 111}]}
